From publication PMC13038408 (Nature Chemical Biology, 2025) come the findings set out here.

Holding throughout (assay): SPR
Common to all, as to details: both partners purified

One test has as its target T1, RSVFV-2 (de novo design (synthetic)).
T1 construct: source: E. coli BL21 (DE3), purified (Ni-NTA, SEC)
T1 chain: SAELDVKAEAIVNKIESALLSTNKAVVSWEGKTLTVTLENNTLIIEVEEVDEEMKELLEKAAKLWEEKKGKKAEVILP

In another test the target is T2, RSVFV-1 (synthetic construct (de novo scaffold …)).
T2 construct: also called RSVF-V H6; source: E. coli BL21 (DE3), purified (Ni-NTA, SEC)
T2 chain: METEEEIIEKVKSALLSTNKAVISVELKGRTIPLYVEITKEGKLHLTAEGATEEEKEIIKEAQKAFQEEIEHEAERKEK

A further test addresses T3, RSVFV-4 (de novo design (synthetic)).
T3 construct: source: E. coli BL21 (DE3), purified (Ni-NTA, SEC)
T3 chain: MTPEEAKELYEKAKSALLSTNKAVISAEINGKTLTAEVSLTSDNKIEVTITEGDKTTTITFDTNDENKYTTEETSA

A further test has as its target T4, RSVFV-3 (de novo design (synthetic)).
T4 construct: source: E. coli BL21 (DE3), purified (Ni-NTA, SEC)
T4 chain: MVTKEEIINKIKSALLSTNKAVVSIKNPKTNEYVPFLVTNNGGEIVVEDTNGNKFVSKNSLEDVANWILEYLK

Another test addresses T5, RSVF-multi-3 (de novo design (synthetic)).
T5 construct: source: E. coli BL21 (DE3), purified (Ni-NTA, SEC)
T5 chain: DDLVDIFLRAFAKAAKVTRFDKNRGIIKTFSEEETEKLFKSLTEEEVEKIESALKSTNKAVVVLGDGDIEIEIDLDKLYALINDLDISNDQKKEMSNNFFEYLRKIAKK

In the next test the target is T6, RSVF-multi-4 (synthetic construct (de novo design)).
T6 construct: also called RSVF-multi-4 WT; source: E. coli BL21 (DE3), purified (Ni-NTA, SEC)
T6 chain: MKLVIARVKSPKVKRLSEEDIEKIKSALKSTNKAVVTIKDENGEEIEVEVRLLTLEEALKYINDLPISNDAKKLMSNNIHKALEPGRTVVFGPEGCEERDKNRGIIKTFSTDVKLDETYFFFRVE

What is called Kd is the equilibrium constant for the complex coming apart. Low values mean tighter binding, high ones weaker binding.

B1: RSV90 Fab (Fab, V domains shown)
VH: EVQLVESGGGLVQPRRSLRLSCAASGFTFDDYTIHWVRQAPGKGLEWVSGITWNSGYIGYADSVKGRFTISRDNARNSLYLQMNSLRAEDTALYYCVRDAYVSGSDYYYYGLDVWGRGTLVTVSS
VL: EIVMTSSPATLSVSPGERVTLFCRASQSVISNLAWYQQKSGQAPRLLIYGASTRATGIPSRFSGSGSGTEFTLTISSLQSEDFAVYFCQQYNNWPLTFGGGTQVNVQ
notes: also called hRSV90; site-V-specific antibody
As to B1, the Kd with RSVFV-2 was determined as 108 nM; in the test with RSVFV-1, 54 nM; in the test with RSVFV-4 it was 241 nM; with RSVFV-3, 94 nM.

B2: Motavizumab IgG (antibody, V domains shown)
VH: QVTLRESGPALVKPTQTLTLTCTFSGFSLSTAGMSVGWIRQPPGKALEWLADIWWDDKKHYNPSLKDRLTISKDTSKNQVVLKVTNMDPADTATYYCARDMIFNFYFDVWGQGTTVTVSS
VL: DIQMTQSPSTLSASVGDRVTITCSASSRVGYMHWYQQKPGKAPKLLIYDTSKLASGVPSRFSGSGSGTEFTLTISSLQPDDFATYYCFQGSGYPFTFGGGTKVEIK
notes: also called site-II-specific antibody
Turning to B2, the equilibrium dissociation constant (Kd) in the test with RSVF-multi-3 amounted to 18 nM; in the test with RSVF-multi-4, 14 nM.
